Source: US20200292534A1

How the values were obtained:
[1] = target: T1, NLpoly11S; experiment: luminescence complementation titration, one-site specific binding; settings: chains peptide; modification not given
T1 chain: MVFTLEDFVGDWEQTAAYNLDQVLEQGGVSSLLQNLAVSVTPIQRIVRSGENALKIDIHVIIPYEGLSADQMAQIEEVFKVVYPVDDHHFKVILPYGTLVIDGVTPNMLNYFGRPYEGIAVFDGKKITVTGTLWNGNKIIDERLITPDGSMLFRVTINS

[2] = target: T1, NLpoly11S; experiment: as above; settings: chains peptide; modification not given
[3] = target: T1, NLpoly11S; experiment: luminescence complementation titration, one-site specific binding fit
[4] = target: T1, NLpoly11S; experiment: luminescence complementation titration (E. coli lysate NLpoly, synthetic NLpep), one site-specific binding fit
[5] = target: T2, NLpoly 5P; experiment: luminescence complementation; HeLa lysate; settings: chains peptide; modification not given
T2 chain: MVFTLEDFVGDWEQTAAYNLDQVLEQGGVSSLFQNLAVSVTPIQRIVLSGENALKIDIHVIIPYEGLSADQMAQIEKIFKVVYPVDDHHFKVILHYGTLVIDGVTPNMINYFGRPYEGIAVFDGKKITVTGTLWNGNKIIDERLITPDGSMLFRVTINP

[6] = target: T3, GTA; experiment: luminescence complementation; settings: chains peptide; modification not given
T3 chain: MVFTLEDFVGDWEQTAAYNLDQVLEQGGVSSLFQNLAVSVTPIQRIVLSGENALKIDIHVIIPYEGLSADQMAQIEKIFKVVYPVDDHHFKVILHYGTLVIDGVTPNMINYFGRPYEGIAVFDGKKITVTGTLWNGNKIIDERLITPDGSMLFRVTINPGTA

[7] = target: T4, ATG; experiment: luminescence complementation; settings: chains peptide; modification not given
T4 chain: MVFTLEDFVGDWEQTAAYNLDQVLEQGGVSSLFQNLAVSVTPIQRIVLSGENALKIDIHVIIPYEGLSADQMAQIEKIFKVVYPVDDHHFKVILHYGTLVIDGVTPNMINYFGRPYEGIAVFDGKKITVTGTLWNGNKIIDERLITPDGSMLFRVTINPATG

[8] = target: T2, NLpoly 5P; experiment: luminescence complementation; settings: chains peptide; modification not given
[9] = target: T5, VTG; experiment: luminescence complementation; settings: chains peptide; modification not given
T5 chain: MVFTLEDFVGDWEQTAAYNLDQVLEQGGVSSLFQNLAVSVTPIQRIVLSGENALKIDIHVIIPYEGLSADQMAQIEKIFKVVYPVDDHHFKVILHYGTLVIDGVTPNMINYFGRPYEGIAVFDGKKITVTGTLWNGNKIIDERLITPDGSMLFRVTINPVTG

[10] = substrate: CP Nluc; experiment: cell-based or functional assay
[11] = target: AA; experiment: luminescence complementation; settings: chains peptide; modification not given
[12] = target: VA; experiment: luminescence complementation; settings: chains peptide; modification not given
[13] = target: VT; experiment: luminescence complementation; settings: chains peptide; modification not given
[14] = target: T1, NLpoly11S; experiment: luminescence complementation titration, one-site specific binding; settings: chains peptide; modification not given

Question: What does the source list for NVSGWRLFKKISN [NLpep78]?
Answer: Kd [1]: 9.56 nM; Kd [2]: 2.39 nM

Question: Which results are given for VTGYRLFQKAL (modifications not checked) [array2.38]?
Answer: Bmax [3]: 72800; Kd [3]: 0.975 µM

Question: For VTGYRLFKKAL (modifications not checked) [array2.29], which Bmax [3] is on record?
Answer: 98600

Question: What about the Kd [3] of the same binder?
Answer: 0.276 µM

Question: What does the source list for VSGWRLFKKISN [NLpep80]?
Answer: Kd [4]: < 1 nM; fold improved affinity over NLpolyWT:NLpepWT [4]: 10000 fold; Kd [5]: 1 nM

Question: Which Kd [2] does the source give for VTGYRLFEKIS [NLpep99] here?
Answer: 266 nM

Question: Which Kd [4] does the source give for VSGWRLFKKIS (modifications not checked) [NLpep86] here?
Answer: < 1 nM

Question: And the fold improved affinity over NLpolyWT:NLpepWT [4]?
Answer: 10000 fold

Question: For VTGYRLFEKES [NLpep101], which Kd [2] is on record?
Answer: 3120 nM

Question: What does the source list for GWRLFKKISN [NLpep82]?
Answer: Kd [6]: 254 nM; Kd [7]: 230 nM; Kd [8]: 215 nM; Kd [9]: 276 nM

Question: Which Kd [2] does the source give for VTGYRLFEKIL [NLpep128] here?
Answer: 237 nM

Question: With VTGYRLFKQIS (modifications not checked) [array2.4] as the binder, how does the Bmax [3] read?
Answer: 104000

Question: What about the Kd [3] of the same binder?
Answer: 0.746 µM

Question: Which results are given for VTGYRLFKKES (modifications not checked) [array2.3]?
Answer: Bmax [3]: 56000; Kd [3]: 0.773 µM

Question: VTGYRLFEQEL (modifications not checked) [array2.51] was tested. Which Bmax [3] did it give?
Answer: 46200

Question: And the Kd [3]?
Answer: 85 µM

Question: VTGYRLFKEEL (modifications not checked) [array2.36] was tested. Which Bmax [3] did it give?
Answer: 1720

Question: What about the Kd [3] of the same binder?
Answer: 7.79 µM

Question: Which results are given for VTGYRLFKEAL (modifications not checked) [array2.35]?
Answer: Bmax [3]: 5550; Kd [3]: 5.15 µM

Question: With VSGWALFKKIS (modifications not checked) [Ala-162] as the binder, how does the inhibition of the luminescence generated by CP Nluc [10] read?
Answer: > 2 logs

Question: How did the Kd [11] turn out when SGWRLFKKISN [NLpep81] was run?
Answer: 115 nM

Question: What about the Kd [12] of the same binder?
Answer: 132 nM

Question: And the Kd [8]?
Answer: 110 nM

Question: What about the Kd [13] of the same binder?
Answer: 137 nM

Question: For VTGYRLFKQAL (modifications not checked) [array2.32], which Bmax [3] is on record?
Answer: 34900

Question: What about the Kd [3] of the same binder?
Answer: 3.56 µM

Question: For VTGYRLFKQEL (modifications not checked) [array2.33], which Bmax [3] is on record?
Answer: 8550

Question: And the Kd [3]?
Answer: 1.95 µM

Question: Which results are given for VTGYRLFKKIL (modifications not checked) [array2.28]?
Answer: Bmax [3]: 141000; Kd [3]: 0.0766 µM

Question: What does the source list for VTGYRLFEKEL (modifications not checked) [array2.48]?
Answer: Bmax [3]: 10900; Kd [3]: 2.44 µM

Question: NVTGYRLFKKISN [NLpep79] was tested. Which Kd [14] did it give?
Answer: 13.1 nM

Question: What about the Kd [2] of the same binder?
Answer: 20.3 nM

Question: Which results are given for VTGYRLFQEAL (modifications not checked) [array2.44]?
Answer: Bmax [3]: 4230; Kd [3]: 16 µM

Question: Which results are given for VTGYRLFKKEL (modifications not checked) [array2.30]?
Answer: Bmax [3]: 51100; Kd [3]: 0.671 µM

Question: Which results are given for VTGYRLFEEEL (modifications not checked) [array2.54]?
Answer: Bmax [3]: 251000; Kd [3]: 68.3 µM

Question: VTGYRLFQEIL (modifications not checked) [array2.43] was tested. Which Bmax [3] did it give?
Answer: 9410

Question: What about the Kd [3] of the same binder?
Answer: 17.2 µM

Question: VTGYRLFQQEL (modifications not checked) [array2.42] was tested. Which Bmax [3] did it give?
Answer: 14200

Question: And the Kd [3]?
Answer: 19 µM

Question: For VEGYRLFEKIS [NLpep104], which Kd [2] is on record?
Answer: 1740 nM

Question: Which Bmax [3] does the source give for VTGYRLFKQIL (modifications not checked) [array2.31] here?
Answer: 115000

Question: And the Kd [3]?
Answer: 2.99 µM

Question: What does the source list for VTGYRLFKEIL (modifications not checked) [array2.34]?
Answer: Bmax [3]: 21900; Kd [3]: 4.41 µM

Question: With VSGWQLFKKIS (modifications not checked) [Gln-162] as the binder, how does the inhibition of the luminescence generated by CP Nluc [10] read?
Answer: > 1 log

Question: For VTGYRLFEQAL (modifications not checked) [array2.50], which Bmax [3] is on record?
Answer: 17100

Question: And the Kd [3]?
Answer: 40.4 µM

Question: Which Bmax [3] does the source give for VTGYRLFQQIL (modifications not checked) [array2.40] here?
Answer: 66300

Question: What about the Kd [3] of the same binder?
Answer: 122 µM

Question: VTGYRLFQKEL (modifications not checked) [array2.39] was tested. Which Bmax [3] did it give?
Answer: 33100

Question: And the Kd [3]?
Answer: 2.48 µM

Question: Which results are given for VTGYRLFQQAL (modifications not checked) [array2.41]?
Answer: Bmax [3]: 3470; Kd [3]: 3.97 µM

Question: With VTGYRLFQEEL (modifications not checked) [array2.45] as the binder, how does the Bmax [3] read?
Answer: 14300

Question: And the Kd [3]?
Answer: 35.4 µM

Question: For VTGYRLFQKIL (modifications not checked) [array2.37], which Bmax [3] is on record?
Answer: 127000

Question: What about the Kd [3] of the same binder?
Answer: 0.362 µM

Question: What does the source list for VTGYRLFEKIL (modifications not checked) [array2.46]?
Answer: Bmax [3]: 219000; Kd [3]: 1.92 µM

Question: For VTGYRLFEQIL (modifications not checked) [array2.49], which Bmax [3] is on record?
Answer: 99200

Question: And the Kd [3]?
Answer: 124 µM

Question: For VTGYRLFEKAL (modifications not checked) [array2.47], which Bmax [3] is on record?
Answer: 34500

Question: What about the Kd [3] of the same binder?
Answer: 1.81 µM
